In patent publication US20250051471A1 (WILLIAM ROBERT ARATHOON LIVING TRUST DATED AUGUST 29 2016, published 2025):
Each block holds one binder with its values, some of them ahead of it.

Tests used:
human CD47 on cells [1] = target: T1, human CD47 on cells (human, UniProt Q08722 19-323); assay: flow cytometry on human RBC, donor D834
T1 construct: also called hCD47; CD47 antigen
Description: (§1) Antibody binding to human and cynomolgus RBC was assessed by flow cytometry. […] RBC were prepared by centrifugation of whole blood aliquots (0.5 mL) for 5 min at 500xg. Supernatant (plasma) was removed, and RBC washed 3 times in D-PBS+1 mM EDTA. After the final wash, the RBC were resuspended in D-PBS+1 mM EDTA to a final volume of 0.5 mL. Washed RBC were then diluted in flow cytometry buffer (D-PBS+2% FBS+0.05% sodium azide) to 2% and dispensed at 50 pL/well into 96-well plates. An equivalent volume (50 pL) of antibody serially diluted in flow cytometry buffer to 2× final was added to the RBC, and the mixture incubated for 1 hour at room temperature. […] After 20 minutes at room temperature RBC were washed twice, resuspended in flow cytometry buffer and analyzed using an Invitrogen™ Attune™ NXT flow cytometer. […] Left panel, RBC are gated (R1) based on forward and side scatter. Middle panel, a second gate (R2) is applied to eliminate any remaining doublets or aggregates. Right panel, fluorescence of the R2 gated cells is assessed and a final gate (R3) is set using unstained RBC. Cells falling in the R3 gate are defined as “positive” for binding and reported as the percent (of R2 gated cells) that fall in the R3 gate. The results are presented at percent positive which represents the percent of RBC in the R3 gate.

human CD47 on cells [2] = target: T1, human CD47 on cells; assay: flow cytometry on human RBC, donor D835
Description: as §1

human CD47 on cells [3] = target: T1, human CD47 on cells; assay: flow cytometry on human RBC, donor D836
Description: as §1

human CD47 on cells [4] = target: T1, human CD47 on cells; assay: flow cytometry on human RBC, donor D837
Description: as §1

[5] = target: T2, cynomolgus CD47 on red blood cells (cynomolgus, UniProt A0A5F8AK49 19-323 (rhesus entry)); assay: flow cytometry on cynomolgus RBC, donor Cy744
T2 construct: whole, on cells; The assay target is the red blood cell; also called cynomolgus Red Blood Cells
Description: as §1

[6] = target: T2, cynomolgus CD47 on red blood cells; assay: flow cytometry on cynomolgus RBC, donor Cy745
Description: as §1

[7] = target: T2, cynomolgus CD47 on red blood cells; assay: flow cytometry on cynomolgus RBC, donor Cy746
Description: as §1

[8] = target: T2, cynomolgus CD47 on red blood cells; assay: flow cytometry on cynomolgus RBC, donor Cy747
Description: as §1

human CD47 on cells [9] = target: T1, human CD47 on cells; assay: flow cytometry on red blood cells (sentence follows Table 9, human RBC)
human ABCB1 on cells [10] = target: T3, human ABCB1 on cells (human, UniProt P08183 1-1280); assay: flow cytometry, DX5 CD47 knock-out cells ('DX5 KT14 KO'), MFI
T3 construct: whole, on cells; also called MDR1; Pgp

human CD47 on cells [11] = target: T1, human CD47 on cells; assay: flow cytometry, DX5 B1 KO (ABCB1 knock-out) cells, % positive cells
human ABCB1 on cells [12] = target: T3, human ABCB1 on cells; assay: flow cytometry, DX5 WT cells (carry both ABCB1 and CD47), MFI
human ABCB1 on cells [13] = target: T3, human ABCB1 on cells; assay: receptor occupancy assay on A2780ADR cells, curve 'BiS-Direct Binding' (PE anti-human IgG Fc); the cells carry both antigens, the target is named after the receptor whose free signal falls in the same panel
Description: Receptor Occupancy (RO) is a measure of the binding of a biotherapeutic to its cellular target(s). Common detection reagents include the drug itself and one or more antibodies binding to the same epitope as the drug. In the present experiment, anti-ABCB1 and anti-CD47 antibodies binding the respective epitopes of the corresponding ABCB1xCD47 bispecific antibodies were used, using the A2780ADR (ovarian) drug resistant cell line. […] Antibodies were prepared by 1:3 serial dilutions in flow cytometry buffer starting from 200 μg/mL (2× final concentration). 50 μL of diluted antibodies were transferred to the cell mixture and the plates incubated at 4° C. for 30 minutes. […] Following two washes with flow cytometry buffer, cells were resuspended in 100 µL of flow cytometry buffer and separated in two samples. […] The two samples were incubated at 4° C. for 30 minutes. Following two washes with flow cytometry buffer, the cells from each sample were resuspended in flow cytometry buffer, plus DAPI, to gate out dead cells, and analyzed using an Attune NXT (ThermoFisher Scientific) flow cytometer.

- % Positive (human CD47 on cells [1]): 0.7%
- % Positive (human CD47 on cells [2]): 0.4%
- % Positive (human CD47 on cells [3]): 0.2%
- % Positive (human CD47 on cells [4]): 0.4%
- % Positive [5]: 0.7%
- % Positive [6]: 2.2%
- % Positive [7]: 15.1%
- % Positive [8]: 26.5%
- binding result (human CD47 on cells [9]): no binding
B1: 15D3VHhuIgG1DD/KT14KK/B1.89v1.huL1(KV2)hmz (bispecific antibody)
heavy 1: not shown
heavy 2: not shown
light: DIVMTQSPLSLPVTPGEPASISCRSSQTIVHSNGNTYLEWYLQKPGQSPQLLIYKVSKRFSGVPDRFSGSGSGTDFTLKISRVEAEDVGVYYCFQASHFPRTFGQGTKLEIKRTVAAPSVFIFPPSDEQLKSGTASVVCLLNNFYPREAKVQWKVDNALQSGNSQESVTEQDSKDSTYSLSSTLTLSKADYEKHKVYACEVTHQGLSSPVTKSFNRGEC
notes: also called KB1-1421; 15D3VHhuIgG1DD/KT14KK/B1.89v1.huL1(KV2)hmzLC

- EC50 (read off the curve) (human ABCB1 on cells [10]): ~0.02 µM
- binding result (human CD47 on cells [11]): binds
- EC50 (read off the curve) (human ABCB1 on cells [12]): ~0.01 µM
- EC50 (read off the curve) (human ABCB1 on cells [13]): ~0.2 µM
B2: 15D3 hmz HIR2/KT14 KBR1/MRK16v4b (bispecific antibody, IgG1)
heavy 1: EVQLVESGGVVVQPGGSLRLSCAASGFTFSRYTMSWVRQAPGKGLEWVATISSGGGNTYYPDSVKGRFTVSRDNSKNSLYLQMNSLRTEDTALYYCARYGAGDAWFAYWGQGTLVTVSSASTKGPSVFPLAPSSKSTSGGTAALGCLVKDYFPEPVTVSWNSGALTSGVHTFPAVLQSSGLYSLSSVVTVPSSSLGTQTYICNVNHKPSNTKVDKRVEPKSCDKTHTCPPCPAPELLGGPSVFLFPPKPKDTLMISRTPEVTCVVVDVSHEDPEVKFNWYVDGVEVHNAKTKPREEQYNSTYRVVSVLTVLHQDWLNGKEYKCKVSNKALPAPIEKTISKAKGQPREPQVCTLPPSREEMTKNQVSLSCAVKGFYPSDIAVEWESNGQPENNYKTTPPVLDSDGSFVLVSKLTVDKSRWQQGNVFSCSVMHEALHNHYTQKSLSLSPG
heavy 2: not shown
light: DIVMTQTPLSSPVTLGQPASISCRSSQSIVHSTGNTYLEWYQQKPGQPPRLLIYKISNRFSGVPDRFSGSGSGTDFTLKISRVEAEDVGVYYCFQASHFPRTFGQGTKLEIK
notes: Humanized ABCB1 x CD47 IgG1 bispecific with a common light chain; the kappa constant region comes from the general cloning description; not shown: human kappa constant light chain
